Data as given in article PMC11788743, “Biochemical characterization of the human ubiquitous glucose‐6‐phosphatase in neutrophil granulocytes” (FEBS Open Bio, 2024).

Key:
[1] = substrate: O=C(O)[C@H](O)[C@@H](O)[C@H](O)[C@H](O)COP(=O)(O)O; test: inorganic phosphate release (molybdate), Michaelis-Menten fit, GFP control subtracted; format: biochemical, Homo sapiens; details: 50 mM Mops pH 6.5, 25 mM CaCl2, 0.5 mM MnCl2, 2.5 mM EDTA, 37 °C, alamethicin, apparent, cell lysate
Text: (§1) inorganic phosphate release (molybdate), Michaelis-Menten fit, GFP control subtracted on human recombinant G6PC3 (glucose-6-phosphatase-β)

[2] = substrate: O=P(O)(O)OC[C@@H](O)[C@@H](O)[C@H](O)[C@@H](O)CO; test: as above; format: biochemical, Homo sapiens; details: 50 mM Mops pH 6.5, 25 mM CaCl2, 0.5 mM MnCl2, 2.5 mM EDTA, 37 °C, alamethicin, apparent, cell lysate
Text: as §1

B1: human recombinant G6PC3 (glucose-6-phosphatase-β) (Homo sapiens) (protein)
chain: MESTLGAGIVIAEALQNQLAWLENVWLWITFLGDPKILFLFYFPAAYYASRRVGIAVLWISLITEWLNLIFKWFLFGDRPFWWVHESGYYSQAPAQVHQFPSSCETGPGSPSGHCMITGAALWPIMTALSSQVATRARSRWVRVMPSLAYCTFLLAVGLSRIFILAHFPHQVLAGLITGAVLGWLMTPRVPMERELSFYGLTALALMLGTSLIYWTLFTLGLDLSWSISLAFKWCERPEWIHVDSRPFASLSRDSGAALGLGIALHSPCYAQVRRAQLGNGQKIACLVLAMGLLGPLDWLGHPPQISLFYIFNFLKYTLWPCLVLALVPWAVHMFSAQEAPPIHSS
notes: full-length G6PC3 cDNA (universal human cDNA) in pEGFP-N1 (XhoI/EcoRI), GFP-G6PC3 fusion, overexpressed in HEK293T; alamethicin-permeabilized cell lysate
[1]
  Km: 8.22 ± 1.4 mM
  Vmax: 0.19 µmol/min/mg
[2]
  Km: 5.11 ± 0.7 mM
  Vmax: 1.66 µmol/min/mg
